The values that follow are results of earlier work, collected in paper PMC3185792.

Read-outs that look alike come from different tables or passages of the source.

The target of series [1] is ICAM (Homo sapiens) (UniProt P05362).
Series [2] shares this target. The source holds these as a separate data set.

Sequence of ICAM (Homo sapiens) (P05362 28-480): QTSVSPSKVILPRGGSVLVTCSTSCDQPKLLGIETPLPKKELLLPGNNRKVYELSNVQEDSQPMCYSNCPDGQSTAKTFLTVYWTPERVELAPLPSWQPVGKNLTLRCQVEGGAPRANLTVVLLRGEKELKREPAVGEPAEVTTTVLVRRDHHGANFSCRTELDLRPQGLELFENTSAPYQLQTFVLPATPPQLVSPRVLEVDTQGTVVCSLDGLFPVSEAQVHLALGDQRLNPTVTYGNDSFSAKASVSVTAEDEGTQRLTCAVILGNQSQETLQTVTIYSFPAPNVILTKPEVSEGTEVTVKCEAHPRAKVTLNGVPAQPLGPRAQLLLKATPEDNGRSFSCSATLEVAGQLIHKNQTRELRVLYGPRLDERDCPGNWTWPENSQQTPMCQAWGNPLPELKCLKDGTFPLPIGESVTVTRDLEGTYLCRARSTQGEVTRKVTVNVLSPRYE
Sequence of LFA-1 integrin (closed conformation) (P20701 26-1090): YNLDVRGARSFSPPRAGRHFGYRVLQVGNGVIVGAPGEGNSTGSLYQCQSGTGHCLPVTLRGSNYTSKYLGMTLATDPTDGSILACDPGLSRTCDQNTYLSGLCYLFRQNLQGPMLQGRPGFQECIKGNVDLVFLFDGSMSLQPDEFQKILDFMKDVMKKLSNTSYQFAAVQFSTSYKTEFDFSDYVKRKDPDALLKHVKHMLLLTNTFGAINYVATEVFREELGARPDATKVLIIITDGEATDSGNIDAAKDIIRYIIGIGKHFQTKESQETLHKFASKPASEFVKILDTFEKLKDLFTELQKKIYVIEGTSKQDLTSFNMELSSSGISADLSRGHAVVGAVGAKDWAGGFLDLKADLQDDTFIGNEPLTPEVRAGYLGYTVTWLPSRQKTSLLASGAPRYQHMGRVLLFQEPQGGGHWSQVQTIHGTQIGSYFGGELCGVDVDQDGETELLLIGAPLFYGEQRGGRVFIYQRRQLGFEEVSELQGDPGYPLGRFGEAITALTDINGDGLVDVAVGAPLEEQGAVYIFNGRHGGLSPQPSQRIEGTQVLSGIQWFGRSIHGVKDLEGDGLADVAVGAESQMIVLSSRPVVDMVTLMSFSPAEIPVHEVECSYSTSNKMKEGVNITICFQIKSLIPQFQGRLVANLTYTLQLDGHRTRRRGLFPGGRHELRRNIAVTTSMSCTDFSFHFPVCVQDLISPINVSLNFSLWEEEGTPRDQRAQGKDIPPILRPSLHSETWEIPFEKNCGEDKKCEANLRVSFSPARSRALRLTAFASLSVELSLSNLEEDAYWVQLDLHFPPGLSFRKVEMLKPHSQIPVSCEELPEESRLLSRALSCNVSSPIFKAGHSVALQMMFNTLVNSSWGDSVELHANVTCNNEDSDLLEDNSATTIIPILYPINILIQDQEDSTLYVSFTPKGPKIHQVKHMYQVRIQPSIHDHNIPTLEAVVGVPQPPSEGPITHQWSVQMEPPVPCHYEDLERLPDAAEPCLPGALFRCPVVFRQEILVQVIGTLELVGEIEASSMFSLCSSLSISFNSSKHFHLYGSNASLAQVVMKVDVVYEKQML
Sequence of LFA-1 integrin (closed conformation) (P05107 23-700, further chain): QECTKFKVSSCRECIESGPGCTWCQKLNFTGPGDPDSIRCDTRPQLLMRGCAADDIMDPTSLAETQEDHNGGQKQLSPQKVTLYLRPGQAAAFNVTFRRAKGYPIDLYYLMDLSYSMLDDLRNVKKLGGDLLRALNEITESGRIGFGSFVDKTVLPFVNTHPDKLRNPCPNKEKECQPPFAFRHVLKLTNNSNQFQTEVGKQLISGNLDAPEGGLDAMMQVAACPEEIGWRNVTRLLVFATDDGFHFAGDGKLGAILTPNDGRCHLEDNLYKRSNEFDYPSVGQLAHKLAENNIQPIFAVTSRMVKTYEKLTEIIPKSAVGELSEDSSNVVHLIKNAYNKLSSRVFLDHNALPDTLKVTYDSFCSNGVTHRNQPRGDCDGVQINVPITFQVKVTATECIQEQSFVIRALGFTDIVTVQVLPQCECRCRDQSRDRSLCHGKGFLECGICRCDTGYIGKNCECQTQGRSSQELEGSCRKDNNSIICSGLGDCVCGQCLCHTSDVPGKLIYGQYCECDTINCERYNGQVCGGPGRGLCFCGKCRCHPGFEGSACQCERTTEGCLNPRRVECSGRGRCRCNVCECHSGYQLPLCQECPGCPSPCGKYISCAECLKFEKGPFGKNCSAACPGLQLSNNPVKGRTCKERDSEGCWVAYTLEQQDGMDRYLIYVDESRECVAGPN
Sequence of LFA-1 integrin (open conformation) (P20701 26-1090): as the sequence (P20701 26-1090) above
Sequence of LFA-1 integrin (open conformation) (P05107 23-700, further chain): as the sequence (P05107 23-700, further chain) above

A word on the Kd: it is the free concentration of one partner at which half of the binding sites on the other are occupied at equilibrium, for simple one-to-one binding. As to “LFA-1 integrin (closed conformation) (from UniProt P20701)”, the Kd with ICAM (Homo sapiens) [1] was 100 µM. Take “LFA-1 integrin (open conformation) (from UniProt P20701)”: the Kd with ICAM (Homo sapiens) [2] was 0.4 µM.
